Numbering of substitutions follows the chain as printed.
B1: GpH7-A5/GpH7-B3 variant E269_09D/GpL16-k0 (antibody, human IgG1, kappa)
heavy 1: not shown
heavy 2: not shown
light: DIVMTQSPLSLPVTPGEPASISCQASESLVHSNRNTYLHWYLQKPGQSPQLLIYKVSNRFSGVPDRFSGSGSGTDFTLKISRVEAEDVGVYYCSQNTHVPPTFGQGTKVEIERTVAAPSVFIFPPSDEQLKSGTASVVCLLNNFYPREAKVQWKVDNALQSGNSQESVTEQDSKDSTYSLSSTLTLSKADYEKHKVYACEVTHQGLSSPVTKSFNRGEC
notes: heterodimerized IgG1, one H chain mutated; also called He Ab
B2: GpH7-A5/GpH7-B3 variant H268_20W/GpL16-k0 (antibody, human IgG1, kappa)
heavy 1: not shown
heavy 2: not shown
light: B1 light
notes: as for B1
B3: GpH7-A5/GpH7-B3 variant L234_02A/GpL16-k0 (antibody, human IgG1, kappa)
heavy 1: not shown
heavy 2: not shown
light: B1 light
notes: as for B1
B4: GpH7-A5/GpH7-B3 variant H268_09D/GpL16-k0 (antibody, human IgG1, kappa)
heavy 1: not shown
heavy 2: not shown
light: B1 light
notes: as for B1
B5: GpH7-A5/GpH7-B3 variant L234_01G/GpL16-k0 (antibody, human IgG1, kappa)
heavy 1: not shown
heavy 2: not shown
light: B1 light
notes: as for B1
B6: GpH7-A5/GpH7-B3 variant G236_10E/GpL16-k0 (antibody, human IgG1, kappa)
heavy 1: not shown
heavy 2: not shown
light: B1 light
notes: as for B1
B7: GpH7-A5/GpH7-B3 variant G236_20W/GpL16-k0 (antibody, human IgG1, kappa)
heavy 1: not shown
heavy 2: not shown
light: B1 light
notes: as for B1
B8: GpH7-A5/GpH7-B3 variant H268_07I/GpL16-k0 (antibody, human IgG1, kappa)
heavy 1: not shown
heavy 2: not shown
light: B1 light
notes: as for B1
B9: GpH7-A5/GpH7-B3 variant L234_03V/GpL16-k0 (antibody, human IgG1, kappa)
heavy 1: not shown
heavy 2: not shown
light: B1 light
notes: as for B1
B10: GpH7-A5/GpH7-B3 variant H268_08L/GpL16-k0 (antibody, human IgG1, kappa)
heavy 1: not shown
heavy 2: not shown
light: B1 light
notes: as for B1
B11: GpH7-A5/GpH7-B3 variant E269_14T/GpL16-k0 (antibody, human IgG1, kappa)
heavy 1: not shown
heavy 2: not shown
light: B1 light
notes: as for B1
B12: GpH7-A5/GpH7-B3 variant H268_02A/GpL16-k0 (antibody, human IgG1, kappa)
heavy 1: not shown
heavy 2: not shown
light: B1 light
notes: as for B1
B13: GpH7-A5/GpH7-B3 variant H268_10E/GpL16-k0 (antibody, human IgG1, kappa)
heavy 1: not shown
heavy 2: not shown
light: B1 light
notes: as for B1
B14: GpH7-A5/GpH7-B3 variant H268_15Y/GpL16-k0 (antibody, human IgG1, kappa)
heavy 1: not shown
heavy 2: not shown
light: B1 light
notes: as for B1
B15: GpH7-A5/GpH7-B3 variant L234_04F/GpL16-k0 (antibody, human IgG1, kappa)
heavy 1: not shown
heavy 2: not shown
light: B1 light
notes: as for B1
B16: GpH7-A5/GpH7-B3 variant H268_03V/GpL16-k0 (antibody, human IgG1, kappa)
heavy 1: not shown
heavy 2: not shown
light: B1 light
notes: as for B1
B17: GpH7-A5/GpH7-B3 variant H268_19Q/GpL16-k0 (antibody, human IgG1, kappa)
heavy 1: not shown
heavy 2: not shown
light: B1 light
notes: as for B1
B18: GpH7-A5/GpH7-B3 variant H268_12R/GpL16-k0 (antibody, human IgG1, kappa)
heavy 1: not shown
heavy 2: not shown
light: B1 light
notes: as for B1
B19: GpH7-A5/GpH7-B3 variant H268_06M/GpL16-k0 (antibody, human IgG1, kappa)
heavy 1: not shown
heavy 2: not shown
light: B1 light
notes: as for B1
B20: GpH7-A5/GpH7-B3 variant H268_14T/GpL16-k0 (antibody, human IgG1, kappa)
heavy 1: not shown
heavy 2: not shown
light: B1 light
notes: as for B1
B21: GpH7-A5/GpH7-B3 variant H268_11K/GpL16-k0 (antibody, human IgG1, kappa)
heavy 1: not shown
heavy 2: not shown
light: B1 light
notes: as for B1
B22: GpH7-A5/GpH7-B3 variant G236_09D/GpL16-k0 (antibody, human IgG1, kappa)
heavy 1: not shown
heavy 2: not shown
light: B1 light
notes: as for B1
B23: GpH7-A5/GpH7-B3 variant H268_01G/GpL16-k0 (antibody, human IgG1, kappa)
heavy 1: not shown
heavy 2: not shown
light: B1 light
notes: as for B1
B24: GpH7-A5/GpH7-B3 variant G236_02A/GpL16-k0 (antibody, human IgG1, kappa)
heavy 1: not shown
heavy 2: not shown
light: B1 light
notes: as for B1
B25: GpH7-A5/GpH7-B3 variant H268_18N/GpL16-k0 (antibody, human IgG1, kappa)
heavy 1: not shown
heavy 2: not shown
light: B1 light
notes: as for B1
B26: GpH7-A5/GpH7-B3 variant E269_13S/GpL16-k0 (antibody, human IgG1, kappa)
heavy 1: not shown
heavy 2: not shown
light: B1 light
notes: as for B1
B27: GpH7-A5/GpH7-B3 variant H268_13S/GpL16-k0 (antibody, human IgG1, kappa)
heavy 1: not shown
heavy 2: not shown
light: B1 light
notes: as for B1
B28: GpH7-A5/GpH7-B3 variant H268_04F/GpL16-k0 (antibody, human IgG1, kappa)
heavy 1: not shown
heavy 2: not shown
light: B1 light
notes: as for B1

Assays:
Assay in all cases: SPR (Biacore), binding relative to GpH7-A5/GpH7-B3/GpL16-k0 x100;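 also: surface plasmon resonance at 25 °C, antibody captured on a sensor chip and soluble FcγR flowed over it in HBS-EP+ running buffer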
[1] = biological target: T1, FcγRIa (human, UniProt P12314 16-292)
T1 construct: extracellular domain; also called 1a

[2] = biological target: T2, FcγRIIa(R) (human, UniProt P12318 34-217)
T2 construct: extracellular domain; also called FcγRIIa R type; 2aR
T2 sequence: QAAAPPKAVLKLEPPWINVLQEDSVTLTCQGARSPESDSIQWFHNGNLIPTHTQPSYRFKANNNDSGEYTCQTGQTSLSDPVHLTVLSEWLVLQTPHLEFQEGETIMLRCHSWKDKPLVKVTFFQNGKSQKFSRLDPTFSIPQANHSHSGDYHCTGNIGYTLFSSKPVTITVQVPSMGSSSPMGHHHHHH

[3] = biological target: T3, FcγRIIa(H) (human, UniProt P12318 34-217)
T3 construct: extracellular domain; also called FcγRIIa H type; 2aH
T3 sequence: T2 sequence with R134H

[4] = biological target: T4, FcγRIIb (human, UniProt P31994 43-217)
T4 construct: extracellular domain; also called 2b
T4 sequence: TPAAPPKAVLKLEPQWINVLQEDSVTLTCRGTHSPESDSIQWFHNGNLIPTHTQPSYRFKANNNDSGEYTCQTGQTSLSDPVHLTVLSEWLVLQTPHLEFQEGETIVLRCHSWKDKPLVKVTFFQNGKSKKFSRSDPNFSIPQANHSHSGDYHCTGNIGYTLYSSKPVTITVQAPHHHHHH

T1 sequence (P12314 other isoform, or with tags, fused parts or gaps): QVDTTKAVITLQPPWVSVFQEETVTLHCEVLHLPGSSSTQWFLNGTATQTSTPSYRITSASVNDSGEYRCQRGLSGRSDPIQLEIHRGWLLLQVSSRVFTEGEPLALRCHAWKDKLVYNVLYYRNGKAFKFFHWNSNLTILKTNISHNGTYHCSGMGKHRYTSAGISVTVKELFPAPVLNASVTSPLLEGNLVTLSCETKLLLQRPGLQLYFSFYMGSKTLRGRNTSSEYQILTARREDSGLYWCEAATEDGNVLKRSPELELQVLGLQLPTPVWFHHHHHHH

| Binder | He/Con 1a [1] | He/Con 2aR [2] | He/Con 2aH [3] | He/Con 2b [4] |
| --- | --- | --- | --- | --- |
| B1 | 103% | 113% | 105% | 110% |
| B2 | 103% | 122% | 96.9% | 117% |
| B3 | 101% | 92.5% | 90.1% | 74.1% |
| B4 | 106% | 161% | 134% | 251% |
| B5 | 99.2% | 72.4% | 84.1% | 57.8% |
| B6 | 92.6% | 124% | 116% | 115% |
| B7 | 104% | 77.3% | 153% | 60.7% |
| B8 | 104% | 102% | 91.2% | 93.4% |
| B9 | 108% | 99% | 94.4% | 83.4% |
| B10 | 104% | 91.4% | 85.9% | 71.2% |
| B11 | 102% | 71% | 70.3% | 53.2% |
| B12 | 105% | 143% | 115% | 175% |
| B13 | 107% | 159% | 126% | 242% |
| B14 | 104% | 118% | 113% | 112% |
| B15 | 104% | 121% | 133% | 114% |
| B16 | 103% | 117% | 100% | 120% |
| B17 | 104% | 128% | 104% | 140% |
| B18 | 103% | 113% | 90.9% | 94.3% |
| B19 | 101% | 67.2% | 85.8% | 69% |
| B20 | 108% | 100% | 93.5% | 90.3% |
| B21 | 102% | 108% | 89.8% | 87.2% |
| B22 | 95.5% | 105% | 93.5% | 174% |
| B23 | 104% | 134% | 100% | 151% |
| B24 | 99.1% | 145% | 145% | 101% |
| B25 | 104% | 138% | 113% | 164% |
| B26 | 99.8% | 65.8% | 70.7% | 50.2% |
| B27 | 106% | 137% | 114% | 168% |
| B28 | 103% | 105% | 112% | 94.2% |
